Values joined by “and” are separate entries in the source; they are usually repeats but may differ in a detail not shown here. Equal entries are not always repeated.
B1: VGFB82 (antibody, human IgG1, lambda, L234A L235A, V domains shown)
VH: EVQLLESGGGLVQPGGSLRLSCEASGFDFSTYAMNWVRQAPGKGLEWVATINSEGTITSHAPAVKGRFTISRDNSKNTAYVQMNSLRAEDSAVYYCSSTTGTTHGMDVWGRGTTVTVSS
VL: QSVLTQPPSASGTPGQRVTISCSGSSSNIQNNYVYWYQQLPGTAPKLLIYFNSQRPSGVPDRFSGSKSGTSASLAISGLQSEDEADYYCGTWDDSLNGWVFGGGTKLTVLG
notes: human IgG1 (L234A/L235A/D265S)
B2: VGFB71 (antibody, human IgG1, lambda, L234A L235A, V domains shown)
VH: EVQLLESGGGLVQPGGSLRLSCEASGFIFRDYNMNWVRQAPGKGLEWVSIITNDGSSTAYSDSVKGRFTISRDNSKNSLYLQMNSLRAEDTAIYYCVKVYYGMDDWGQGTTVTVSS
VL: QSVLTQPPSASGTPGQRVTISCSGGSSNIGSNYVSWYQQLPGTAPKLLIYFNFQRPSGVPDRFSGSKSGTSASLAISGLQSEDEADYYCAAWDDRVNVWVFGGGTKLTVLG
notes: as for B1
B3: VGFB78 (antibody, human IgG1, lambda, L234A L235A, V domains shown)
VH: EVQLLESGGGLVQPGGSLRLSCAASSFTFYNYDMTWVRQAPGKGLEWVAGIGTSGTDMYYADSVKGRFTISRDNSKNTLYLQMNSLRAEDTAIYYCAKDYYYYGMDVWGLGTTVTVSS
VL: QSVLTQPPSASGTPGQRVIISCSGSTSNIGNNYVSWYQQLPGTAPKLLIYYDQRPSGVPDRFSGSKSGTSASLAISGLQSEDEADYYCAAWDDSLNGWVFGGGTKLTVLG
notes: as for B1
B4: VGFB54 (antibody, human IgG1, lambda, L234A L235A, V domains shown)
VH: EVQLLESGGGSVQPGGSLRLSCTASGFNFEDYGMNWVRQAPGKGLDWVSSINRNGDISTYHVDSVKGRFTISRDNSKNTLYLQMNSLRAEDTAIYYCTKNHDYHGMDVWGQGTTVTVSS
VL: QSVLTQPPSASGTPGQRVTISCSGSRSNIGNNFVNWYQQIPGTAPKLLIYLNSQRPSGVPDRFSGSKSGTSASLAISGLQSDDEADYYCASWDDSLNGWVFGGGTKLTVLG
notes: human IgG1 (L234A/L235A/D265S), lambda, 2H:2L; from OmniChicken

How the values were obtained:
[1] = molecular target: T1, mouse VEGFR1 (soluble antigen of the KinExA and SPR affinity assays) (mouse, UniProt P35969 23-759, limits assumed); test: SPR
T1 sequence (looked up): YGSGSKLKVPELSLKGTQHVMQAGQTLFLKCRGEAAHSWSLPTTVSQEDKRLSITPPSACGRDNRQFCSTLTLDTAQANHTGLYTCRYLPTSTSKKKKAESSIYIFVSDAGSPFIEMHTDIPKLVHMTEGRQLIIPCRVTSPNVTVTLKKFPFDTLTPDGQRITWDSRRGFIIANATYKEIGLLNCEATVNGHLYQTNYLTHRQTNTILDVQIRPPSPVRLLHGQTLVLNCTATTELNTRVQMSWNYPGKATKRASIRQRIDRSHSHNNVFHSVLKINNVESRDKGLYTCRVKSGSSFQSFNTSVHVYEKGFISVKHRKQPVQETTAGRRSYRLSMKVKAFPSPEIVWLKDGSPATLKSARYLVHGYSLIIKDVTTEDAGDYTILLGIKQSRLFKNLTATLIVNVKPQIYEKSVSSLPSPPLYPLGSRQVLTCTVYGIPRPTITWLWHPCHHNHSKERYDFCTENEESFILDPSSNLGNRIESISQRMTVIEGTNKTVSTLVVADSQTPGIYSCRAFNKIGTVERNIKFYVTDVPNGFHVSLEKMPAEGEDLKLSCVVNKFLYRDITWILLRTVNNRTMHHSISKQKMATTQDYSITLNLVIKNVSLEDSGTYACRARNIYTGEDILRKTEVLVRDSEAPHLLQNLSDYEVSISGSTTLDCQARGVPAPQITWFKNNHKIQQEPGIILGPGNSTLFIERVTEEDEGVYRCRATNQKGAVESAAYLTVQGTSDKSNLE

[2] = molecular target: T2, human VEGFR2, over-expressed on HEK293 cells (human, UniProt P35968 20-1356); test: flow cytometry, 10 nM antibody, HEK cells over-expressing human VEGFR2
T2 construct: whole, on cells; also called huVEGFR2; hVEGFR2
T2 sequence (P35968 20-1356): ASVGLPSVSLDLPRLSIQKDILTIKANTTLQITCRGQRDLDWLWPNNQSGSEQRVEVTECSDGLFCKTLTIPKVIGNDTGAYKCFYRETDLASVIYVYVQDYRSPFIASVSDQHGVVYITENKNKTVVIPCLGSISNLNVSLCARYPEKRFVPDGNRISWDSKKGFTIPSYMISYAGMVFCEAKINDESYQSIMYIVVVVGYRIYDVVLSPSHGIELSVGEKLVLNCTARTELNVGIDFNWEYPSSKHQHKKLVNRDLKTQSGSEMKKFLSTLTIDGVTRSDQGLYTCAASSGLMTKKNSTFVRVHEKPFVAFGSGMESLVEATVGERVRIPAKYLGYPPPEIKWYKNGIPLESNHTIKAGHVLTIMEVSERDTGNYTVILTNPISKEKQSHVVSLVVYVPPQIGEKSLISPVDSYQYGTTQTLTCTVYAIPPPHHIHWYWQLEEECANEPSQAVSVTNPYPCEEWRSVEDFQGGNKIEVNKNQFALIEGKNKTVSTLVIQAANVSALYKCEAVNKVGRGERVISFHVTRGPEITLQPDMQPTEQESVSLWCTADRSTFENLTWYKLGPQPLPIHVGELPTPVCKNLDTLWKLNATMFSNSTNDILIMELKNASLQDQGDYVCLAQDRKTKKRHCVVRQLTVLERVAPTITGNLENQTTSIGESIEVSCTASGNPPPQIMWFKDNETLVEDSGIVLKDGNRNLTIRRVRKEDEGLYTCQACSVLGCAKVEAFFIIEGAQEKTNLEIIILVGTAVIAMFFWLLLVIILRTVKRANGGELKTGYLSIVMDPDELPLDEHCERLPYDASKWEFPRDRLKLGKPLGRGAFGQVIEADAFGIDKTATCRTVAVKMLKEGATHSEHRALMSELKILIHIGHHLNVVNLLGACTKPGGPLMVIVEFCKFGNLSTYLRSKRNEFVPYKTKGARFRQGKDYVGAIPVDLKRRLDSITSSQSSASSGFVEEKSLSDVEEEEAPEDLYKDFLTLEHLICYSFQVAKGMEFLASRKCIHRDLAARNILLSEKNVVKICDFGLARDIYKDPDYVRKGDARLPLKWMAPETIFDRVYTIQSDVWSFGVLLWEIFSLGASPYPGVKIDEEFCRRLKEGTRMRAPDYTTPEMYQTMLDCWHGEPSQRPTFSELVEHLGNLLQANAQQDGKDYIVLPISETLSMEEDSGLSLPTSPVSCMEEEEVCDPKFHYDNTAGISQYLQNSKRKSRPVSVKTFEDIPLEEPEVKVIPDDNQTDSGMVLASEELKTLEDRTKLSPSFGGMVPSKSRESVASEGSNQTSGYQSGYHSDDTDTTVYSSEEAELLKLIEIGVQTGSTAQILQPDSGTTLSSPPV

[3] = molecular target: T3, human VEGFR3, over-expressed on K562 cells (human, UniProt P35916 25-1363); test: FACS cell binding (MFI) on K562 cells over-expressing human VEGFR3; expanded clone supernatant per paragraph 492, concentration not given
T3 construct: whole, on cells; also called huVEGFR3; hVEGFR3
T3 sequence (P35916 25-1363): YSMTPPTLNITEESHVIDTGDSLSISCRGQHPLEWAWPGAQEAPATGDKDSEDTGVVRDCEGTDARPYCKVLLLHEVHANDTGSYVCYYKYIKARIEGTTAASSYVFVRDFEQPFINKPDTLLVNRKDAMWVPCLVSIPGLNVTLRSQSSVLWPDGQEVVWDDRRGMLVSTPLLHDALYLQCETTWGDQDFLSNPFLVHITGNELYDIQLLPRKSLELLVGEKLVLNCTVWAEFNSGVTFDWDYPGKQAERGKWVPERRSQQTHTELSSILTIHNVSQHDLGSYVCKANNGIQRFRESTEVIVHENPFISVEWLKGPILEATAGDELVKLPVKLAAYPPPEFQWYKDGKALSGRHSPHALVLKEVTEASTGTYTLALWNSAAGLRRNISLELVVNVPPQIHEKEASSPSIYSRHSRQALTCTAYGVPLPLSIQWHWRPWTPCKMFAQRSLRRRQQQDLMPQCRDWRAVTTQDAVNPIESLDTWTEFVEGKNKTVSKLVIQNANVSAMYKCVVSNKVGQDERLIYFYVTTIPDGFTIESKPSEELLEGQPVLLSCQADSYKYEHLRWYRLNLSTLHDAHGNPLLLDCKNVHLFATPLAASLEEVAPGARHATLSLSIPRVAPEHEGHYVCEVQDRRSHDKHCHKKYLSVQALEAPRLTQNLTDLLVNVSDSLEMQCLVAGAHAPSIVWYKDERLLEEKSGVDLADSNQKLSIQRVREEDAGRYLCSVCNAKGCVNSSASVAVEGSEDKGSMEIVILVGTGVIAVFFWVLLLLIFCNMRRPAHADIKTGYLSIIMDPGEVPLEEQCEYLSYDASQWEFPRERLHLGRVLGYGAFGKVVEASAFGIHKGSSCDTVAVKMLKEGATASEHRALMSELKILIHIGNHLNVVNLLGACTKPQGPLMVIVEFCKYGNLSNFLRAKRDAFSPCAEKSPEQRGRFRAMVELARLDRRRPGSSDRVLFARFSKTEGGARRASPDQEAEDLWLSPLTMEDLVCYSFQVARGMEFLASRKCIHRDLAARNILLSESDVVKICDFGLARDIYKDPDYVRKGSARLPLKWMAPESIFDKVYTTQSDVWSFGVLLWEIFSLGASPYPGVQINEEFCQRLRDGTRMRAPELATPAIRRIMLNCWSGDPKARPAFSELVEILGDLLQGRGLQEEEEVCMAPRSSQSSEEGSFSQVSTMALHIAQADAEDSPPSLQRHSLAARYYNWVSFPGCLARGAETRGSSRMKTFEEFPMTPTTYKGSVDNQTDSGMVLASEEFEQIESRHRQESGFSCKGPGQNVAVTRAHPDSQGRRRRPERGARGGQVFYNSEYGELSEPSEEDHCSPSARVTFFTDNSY
In short: (§1)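 Flow cytometry was used to measure binding of culture supernatants to HEK cells over-expressing mouse VEGFR1 or human VEGFR2 and to K562 cells over-expressing human VEGFR3. The supernatants came from chicken-derived clones expressed as scFv-Fc (human IgG1) by transient transfection and expanded to 6-well plates (2 mL). Binding is reported as mean fluorescence intensity.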

[4] = molecular target: T4, His tagged cyno VEGFR1 (cynomolgus monkey, UniProt A0A2K5VAF2 27-758); test: MSD ECL competition on plate-bound His-tagged cyno VEGFR1; competitor biotin human VEGFA165 (0.2 nM)
In short: (§2)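 MSD 384 plates were coated with Protein A/G or anti-His mAb, blocked with Blocker A, and used to capture human or mouse VEGFR1-Fc or His-tagged cyno VEGFR1 at 0.5 ug/ml for 1 hour at room temperature. Antibody in half-log dilutions was pre-incubated for 30 minutes, after which biotinylated VEGFA (0.2 nM) or PlGF (2 nM) was added. Bound ligand was detected with Sulfo-tagged streptavidin on an MSD SECTOR S 600 imager, and IC50 and maximal percent inhibition were derived from the electro-chemiluminescence signal.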

[5] = molecular target: T2, human VEGFR2, over-expressed on HEK293 …; test: FACS cell binding (MFI) on HEK cells over-expressing human VEGFR2; expanded clone supernatant per paragraph 492, concentration not given
In short: as §1

[6] = molecular target: T4, His tagged cyno VEGFR1; test: MSD ECL competition on plate-bound His-tagged cyno VEGFR1; competitor biotin human PlGF (2 nM)
In short: as §2

[7] = molecular target: T5, VGFW1 (human, UniProt P17948 27-338, limits assumed); test: HDX-MS
T5 construct: construct of the HDX-MS work; also called VEGFR1 (VGFW1)
T5 sequence (P17948 27-338 limits assumed): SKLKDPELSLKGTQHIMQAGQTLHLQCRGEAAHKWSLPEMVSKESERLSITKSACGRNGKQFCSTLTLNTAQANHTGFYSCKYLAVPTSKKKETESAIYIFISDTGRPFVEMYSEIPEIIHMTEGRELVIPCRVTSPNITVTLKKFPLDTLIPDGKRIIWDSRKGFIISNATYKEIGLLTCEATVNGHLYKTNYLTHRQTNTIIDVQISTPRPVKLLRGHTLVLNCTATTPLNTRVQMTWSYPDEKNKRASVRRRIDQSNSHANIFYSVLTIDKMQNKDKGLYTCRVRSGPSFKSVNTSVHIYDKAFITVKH
In short: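 Hydrogen-deuterium exchange mass spectrometry mapped antibody binding on a recombinant VEGFR1 antigen. The read-out is the change in free energy per segment upon antibody binding. Segments above 2 kcal/mol count as strong epitopes and segments at 1-2 kcal/mol as weak ones.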

[8] = molecular target: T6, Recombinant mouse VEGFR1-Fc (R&D Systems) (mouse, UniProt P35969 27-759, limits assumed); test: MSD ECL competition on plate-bound mouse VEGFR1-Fc; competitor biotin mouse VEGFA164 (0.2 nM)
T6 construct: bought; not shown: Fc part of the bought fusion, not described
T6 sequence (looked up): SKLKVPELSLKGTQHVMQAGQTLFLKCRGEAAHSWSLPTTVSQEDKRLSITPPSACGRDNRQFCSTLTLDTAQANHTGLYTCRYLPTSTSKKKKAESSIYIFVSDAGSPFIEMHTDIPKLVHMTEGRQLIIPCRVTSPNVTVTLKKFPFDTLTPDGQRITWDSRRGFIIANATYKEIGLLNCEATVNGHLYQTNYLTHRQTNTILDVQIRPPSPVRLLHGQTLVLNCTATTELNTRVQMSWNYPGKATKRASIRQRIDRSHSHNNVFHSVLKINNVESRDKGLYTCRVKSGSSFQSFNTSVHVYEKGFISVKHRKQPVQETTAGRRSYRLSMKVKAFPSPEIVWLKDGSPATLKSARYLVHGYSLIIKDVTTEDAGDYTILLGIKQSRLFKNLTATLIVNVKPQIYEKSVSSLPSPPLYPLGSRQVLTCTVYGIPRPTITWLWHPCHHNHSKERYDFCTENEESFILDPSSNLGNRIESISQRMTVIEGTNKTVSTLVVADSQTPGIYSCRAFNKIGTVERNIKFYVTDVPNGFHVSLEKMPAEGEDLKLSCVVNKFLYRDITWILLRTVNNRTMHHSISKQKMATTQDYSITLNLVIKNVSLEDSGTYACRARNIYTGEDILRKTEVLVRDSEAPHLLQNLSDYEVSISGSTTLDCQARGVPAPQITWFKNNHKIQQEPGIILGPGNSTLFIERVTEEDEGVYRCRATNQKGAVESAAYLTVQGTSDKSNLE
In short: as §2

Row | Binder | Kd [1] | Geomean over-expressing/Geomean parental (Fold Signal/Background) [2] | binding result [3] | IC50 [4] | Max % Inh. [4] | binding result [5] | IC50 [6] | Max % Inh. [6] | Free energy change upon binding (ΔΔG), VEGFR1 segment 141-147 [7] | Free energy change upon binding (ΔΔG), VEGFR1 segment 147-153 [7] | Free energy change upon binding (ΔΔG), VEGFR1 segment 172-177 [7] | Free energy change upon binding (ΔΔG), VEGFR1 segment 178-199 [7] | Free energy change upon binding (ΔΔG), VEGFR1 segment 200-200 [7] | Free energy change upon binding (ΔΔG), VEGFR1 segment 201-204 [7] | Free energy change upon binding (ΔΔG), VEGFR1 segment 211-215 [7] | Free energy change upon binding (ΔΔG), VEGFR1 segment 218-228 [7] | IC50 [8] | Max % Inh. [8]
1 | B1 | 0.01 nM | 1.34 fold | no binding | 0.081 nM | 99% | no binding | 0.091 nM | 100% | -0.6 kcal/mol | -0.1 kcal/mol | -0.6 kcal/mol | -1 kcal/mol | -0.5 kcal/mol | -3.3 kcal/mol | -0.1 kcal/mol | -0.3 kcal/mol | 0.04 nM | 99.8%
2 | B2 |  | 1.27 fold | no binding |  |  |  |  |  | -0.3 kcal/mol | -1.2 kcal/mol | -4.2 kcal/mol | 0 kcal/mol | -2.8 kcal/mol | -2.8 kcal/mol | -0.1 kcal/mol | -0.3 kcal/mol |  | 
3 | B3 | 0.004 nM and < 0.006 nM | 1.75 fold | no binding | 0.134 nM | 98.6% | no binding | 0.177 nM | 100% | -0.3 kcal/mol | -0.6 kcal/mol | -2.7 kcal/mol | -1.1 kcal/mol | -2.9 kcal/mol | -3.6 kcal/mol | 0.1 kcal/mol | -0.2 kcal/mol | 0.183 nM | 101%
4 | B4 | 5.3 nM | 1.52 fold | no binding | 0.089 nM | 98.6% | no binding | 0.078 nM | 100% | -0.2 kcal/mol | -0.4 kcal/mol | -2.6 kcal/mol | -0.3 kcal/mol | -1.4 kcal/mol | -3.6 kcal/mol | -0.1 kcal/mol | -0.7 kcal/mol | 0.026 nM | 100%
